According to the supplement of paper PMC10065799, “High-throughput profiling of sequence recognition by tyrosine kinases and SH2 domains using bacterial peptide display” (eLife, 2023):

Key:
AncSZ = test: phosphorylation enrichment, bacterial display (enrichment ratio); higher = better substrate or ligand; peptides without Tyr show the background
EPHB1 = EPHB1 (UniProt P54762); test: as above
EPHB2 = EPHB2 (UniProt P29323); test: as above
FGFR1 = FGFR1 (UniProt P11362); test: as above
FGFR3 = FGFR3 (UniProt P22607); test: as above
Chain of FGFR3 (P22607 whole entry, looked up): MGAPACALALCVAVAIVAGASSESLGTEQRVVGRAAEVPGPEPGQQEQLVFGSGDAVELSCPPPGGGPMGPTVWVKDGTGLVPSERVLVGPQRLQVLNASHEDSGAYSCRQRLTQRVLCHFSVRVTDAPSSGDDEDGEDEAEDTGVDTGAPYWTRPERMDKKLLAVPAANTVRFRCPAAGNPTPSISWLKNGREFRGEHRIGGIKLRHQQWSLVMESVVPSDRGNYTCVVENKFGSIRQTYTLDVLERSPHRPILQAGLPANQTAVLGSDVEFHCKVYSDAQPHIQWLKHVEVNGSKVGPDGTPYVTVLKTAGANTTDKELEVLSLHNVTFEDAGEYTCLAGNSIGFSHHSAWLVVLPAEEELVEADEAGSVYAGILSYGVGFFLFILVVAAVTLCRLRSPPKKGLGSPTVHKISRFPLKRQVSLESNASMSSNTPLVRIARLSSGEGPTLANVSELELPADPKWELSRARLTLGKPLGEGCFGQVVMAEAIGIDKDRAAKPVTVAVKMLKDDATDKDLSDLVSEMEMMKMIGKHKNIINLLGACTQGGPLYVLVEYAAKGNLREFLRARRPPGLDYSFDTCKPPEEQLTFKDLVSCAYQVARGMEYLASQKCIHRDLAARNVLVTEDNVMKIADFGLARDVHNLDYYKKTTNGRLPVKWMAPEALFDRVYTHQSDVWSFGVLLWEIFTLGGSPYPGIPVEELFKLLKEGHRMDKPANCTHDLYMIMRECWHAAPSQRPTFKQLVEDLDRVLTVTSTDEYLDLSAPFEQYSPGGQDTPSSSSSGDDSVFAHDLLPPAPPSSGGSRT

Fer (mouse) = test: as above
Fes = Fes (UniProt P07332); test: as above
Chain of Fes (P07332 whole entry, looked up): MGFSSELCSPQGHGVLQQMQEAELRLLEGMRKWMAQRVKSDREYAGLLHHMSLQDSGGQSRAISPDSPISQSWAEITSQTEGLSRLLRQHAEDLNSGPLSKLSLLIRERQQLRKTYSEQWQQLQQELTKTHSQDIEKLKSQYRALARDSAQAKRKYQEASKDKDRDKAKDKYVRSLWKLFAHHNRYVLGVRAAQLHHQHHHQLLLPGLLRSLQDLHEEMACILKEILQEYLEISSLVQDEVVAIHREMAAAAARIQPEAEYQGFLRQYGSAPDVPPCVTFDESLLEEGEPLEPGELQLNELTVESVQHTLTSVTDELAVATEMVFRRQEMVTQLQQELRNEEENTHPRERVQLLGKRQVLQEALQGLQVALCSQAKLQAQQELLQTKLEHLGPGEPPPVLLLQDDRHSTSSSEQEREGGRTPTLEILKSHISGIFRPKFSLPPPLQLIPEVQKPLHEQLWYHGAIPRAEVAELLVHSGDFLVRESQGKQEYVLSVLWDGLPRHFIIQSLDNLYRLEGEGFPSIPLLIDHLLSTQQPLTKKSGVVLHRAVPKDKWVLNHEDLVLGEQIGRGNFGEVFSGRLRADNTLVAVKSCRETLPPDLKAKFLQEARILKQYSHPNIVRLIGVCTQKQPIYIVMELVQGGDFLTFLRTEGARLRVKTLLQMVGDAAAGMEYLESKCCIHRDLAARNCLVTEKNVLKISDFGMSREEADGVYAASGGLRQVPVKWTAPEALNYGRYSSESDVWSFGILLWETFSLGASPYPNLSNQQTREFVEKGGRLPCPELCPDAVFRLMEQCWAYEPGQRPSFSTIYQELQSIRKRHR

Fyn = Fyn (UniProt P06241); test: as above
Hck = Hck (UniProt P08631); test: as above
Jak2 = Jak2 (UniProt O60674); test: as above
MERTK = MERTK (UniProt Q12866); test: as above
Chain of MERTK (Q12866 whole entry, looked up): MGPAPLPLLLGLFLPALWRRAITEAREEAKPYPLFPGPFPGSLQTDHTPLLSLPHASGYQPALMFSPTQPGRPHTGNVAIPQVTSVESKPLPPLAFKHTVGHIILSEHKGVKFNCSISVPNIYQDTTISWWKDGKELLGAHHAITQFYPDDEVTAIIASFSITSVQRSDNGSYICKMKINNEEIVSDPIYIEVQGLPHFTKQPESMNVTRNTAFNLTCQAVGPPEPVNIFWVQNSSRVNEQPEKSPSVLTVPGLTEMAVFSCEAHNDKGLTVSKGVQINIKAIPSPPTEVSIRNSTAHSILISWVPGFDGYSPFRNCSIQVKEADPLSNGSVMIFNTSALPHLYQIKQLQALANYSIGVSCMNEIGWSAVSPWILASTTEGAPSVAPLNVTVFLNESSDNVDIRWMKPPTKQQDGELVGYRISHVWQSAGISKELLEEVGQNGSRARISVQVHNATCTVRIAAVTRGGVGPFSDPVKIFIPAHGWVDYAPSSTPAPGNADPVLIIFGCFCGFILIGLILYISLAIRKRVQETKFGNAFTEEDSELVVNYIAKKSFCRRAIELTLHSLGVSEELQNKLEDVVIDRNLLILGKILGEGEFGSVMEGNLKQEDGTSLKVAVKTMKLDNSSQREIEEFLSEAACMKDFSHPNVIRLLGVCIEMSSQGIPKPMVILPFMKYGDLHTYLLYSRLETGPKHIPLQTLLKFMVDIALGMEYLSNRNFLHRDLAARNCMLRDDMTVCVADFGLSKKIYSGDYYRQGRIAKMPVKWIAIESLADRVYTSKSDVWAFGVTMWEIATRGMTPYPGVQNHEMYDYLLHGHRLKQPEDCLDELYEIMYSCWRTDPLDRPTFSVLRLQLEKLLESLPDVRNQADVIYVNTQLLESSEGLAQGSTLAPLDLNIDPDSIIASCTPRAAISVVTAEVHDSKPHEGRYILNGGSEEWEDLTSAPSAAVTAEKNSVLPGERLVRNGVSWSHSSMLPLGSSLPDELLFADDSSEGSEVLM

c-Abl (mouse) = test: as above
c-Src = test: as above
Grb2 SH2 = Grb2 SH2 (UniProt P62993); test: SH2 binding enrichment of the phosphorylated peptide, bacterial display (enrichment ratio); higher = better substrate or ligand; peptides without Tyr show the background
Chain of Grb2 SH2 (P62993 whole entry, looked up): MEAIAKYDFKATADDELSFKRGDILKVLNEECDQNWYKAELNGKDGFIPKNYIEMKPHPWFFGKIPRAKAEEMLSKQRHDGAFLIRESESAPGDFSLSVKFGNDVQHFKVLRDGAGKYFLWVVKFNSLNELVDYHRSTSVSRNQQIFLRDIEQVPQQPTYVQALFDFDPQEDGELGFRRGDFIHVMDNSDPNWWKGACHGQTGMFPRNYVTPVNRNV

SHP2-C SH2 = test: as above
c-Src SH2 = test: as above
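Wherever SH2 binding enrichment of the phosphorylated peptide, bacterial display is given: peptide library displayed on the E. coli surface as eCPX fusions, selected cells deep-sequenced, score is each peptide's frequency after selection divided by its frequency in the input.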
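Wherever phosphorylation enrichment, bacterial display is given: 11-residue human phosphosite peptides and single-mutation variants displayed on the E. coli surface, counted by deep sequencing, each peptide's frequency after selection divided by its frequency in the unselected input library; frequency after pTyr selection over input frequency; kinase dosed for 20-30% of maximal phosphorylation in three min.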

Chain of FGFR1 (P11362 whole entry, looked up): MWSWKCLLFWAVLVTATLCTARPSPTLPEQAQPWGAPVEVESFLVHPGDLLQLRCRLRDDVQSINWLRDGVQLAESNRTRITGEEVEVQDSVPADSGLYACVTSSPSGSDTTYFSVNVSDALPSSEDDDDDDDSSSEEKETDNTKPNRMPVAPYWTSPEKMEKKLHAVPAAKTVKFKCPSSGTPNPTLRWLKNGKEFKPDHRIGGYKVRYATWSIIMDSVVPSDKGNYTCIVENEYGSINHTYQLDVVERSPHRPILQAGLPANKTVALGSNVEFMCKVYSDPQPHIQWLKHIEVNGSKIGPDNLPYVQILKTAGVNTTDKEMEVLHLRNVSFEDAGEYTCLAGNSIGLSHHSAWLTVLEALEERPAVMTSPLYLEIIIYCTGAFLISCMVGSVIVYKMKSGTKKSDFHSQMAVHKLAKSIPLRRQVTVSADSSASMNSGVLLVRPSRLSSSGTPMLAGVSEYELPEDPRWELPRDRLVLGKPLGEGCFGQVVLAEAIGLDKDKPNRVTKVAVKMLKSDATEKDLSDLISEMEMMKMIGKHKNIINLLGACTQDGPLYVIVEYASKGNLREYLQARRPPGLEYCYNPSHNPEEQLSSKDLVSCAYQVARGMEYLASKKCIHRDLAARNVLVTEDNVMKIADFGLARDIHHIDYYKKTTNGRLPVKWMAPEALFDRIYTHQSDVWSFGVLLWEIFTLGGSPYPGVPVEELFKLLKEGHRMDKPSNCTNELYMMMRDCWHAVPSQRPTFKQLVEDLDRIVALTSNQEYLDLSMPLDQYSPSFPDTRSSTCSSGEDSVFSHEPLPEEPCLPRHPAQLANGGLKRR
Chain of EPHB1 (P54762 whole entry, looked up): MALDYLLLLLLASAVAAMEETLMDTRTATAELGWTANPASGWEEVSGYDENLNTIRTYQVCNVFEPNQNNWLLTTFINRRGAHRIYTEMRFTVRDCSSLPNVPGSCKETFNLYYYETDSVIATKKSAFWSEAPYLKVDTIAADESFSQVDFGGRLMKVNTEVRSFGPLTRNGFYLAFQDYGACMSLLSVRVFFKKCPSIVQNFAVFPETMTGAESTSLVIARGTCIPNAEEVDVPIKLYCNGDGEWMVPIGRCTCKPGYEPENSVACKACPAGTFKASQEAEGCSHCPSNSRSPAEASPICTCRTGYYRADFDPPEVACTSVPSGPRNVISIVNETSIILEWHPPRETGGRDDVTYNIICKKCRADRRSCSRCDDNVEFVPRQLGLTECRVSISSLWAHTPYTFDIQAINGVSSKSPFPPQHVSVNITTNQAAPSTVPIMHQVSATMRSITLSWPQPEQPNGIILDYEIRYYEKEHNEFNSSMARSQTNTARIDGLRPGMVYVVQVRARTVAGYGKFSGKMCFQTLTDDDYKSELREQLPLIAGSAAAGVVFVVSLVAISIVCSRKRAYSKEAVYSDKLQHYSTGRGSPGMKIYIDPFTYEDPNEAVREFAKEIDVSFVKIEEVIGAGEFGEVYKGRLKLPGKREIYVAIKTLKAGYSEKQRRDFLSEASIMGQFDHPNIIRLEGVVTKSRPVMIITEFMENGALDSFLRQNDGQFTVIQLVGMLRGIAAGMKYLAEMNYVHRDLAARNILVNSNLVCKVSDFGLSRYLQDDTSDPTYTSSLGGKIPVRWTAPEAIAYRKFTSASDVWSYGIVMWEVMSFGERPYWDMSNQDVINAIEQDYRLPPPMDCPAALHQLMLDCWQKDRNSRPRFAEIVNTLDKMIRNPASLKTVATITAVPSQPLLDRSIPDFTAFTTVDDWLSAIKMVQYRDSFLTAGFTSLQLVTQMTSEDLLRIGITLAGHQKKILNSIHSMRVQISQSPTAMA

Row | Sequence | phosphorylation enrichment (AncSZ) | phosphorylation enrichment (EPHB1) | phosphorylation enrichment (EPHB2) | phosphorylation enrichment (FGFR1) | phosphorylation enrichment (FGFR3) | phosphorylation enrichment (Fer (mouse)) | phosphorylation enrichment (Fes) | phosphorylation enrichment (Fyn) | phosphorylation enrichment (Hck) | phosphorylation enrichment (Jak2) | phosphorylation enrichment (MERTK) | phosphorylation enrichment (c-Abl (mouse)) | phosphorylation enrichment (c-Src) | SH2 binding enrichment (Grb2 SH2) | SH2 binding enrichment (SHP2-C SH2) | SH2 binding enrichment (c-Src SH2)
1 | RLLRGYDQSAY [HLA-C_Y137] | 0.57 | 0.569 | 0.465 | 0.394 | 0.593 | 0.52 | 0.826 | 0.465 | 0.527 | 0.576 | 0.36 | 0.468 | 0.416 | 0.858 | 0.83 | 0.645
2 | KSPDSYQKILP [ATM_Y1415_L1420P] | 0.544 | 0.387 | 0.321 | 0.517 | 0.429 | 0.531 | 0.584 | 0.427 | 0.36 | 0.519 | 0.414 | 0.431 | 0.389 | 0.947 | 0.688 | 1.45
3 | CTTNHYNFMCN [TP53_Y234_I232N_YF] | 0.811 | 0.436 | 0.544 | 0.626 | 0.556 | 0.486 | 0.67 | 0.463 | 0.424 | 0.511 | 0.437 | 0.489 | 0.497 | 0.962 | 1.12 | 3.79
4 | FRIGPYQPNVP [MATR3_Y784_YF] | 0.773 | 0.477 | 0.514 | 0.538 | 0.736 | 0.446 | 0.966 | 0.45 | 0.484 | 0.78 | 0.532 | 0.631 | 0.506 | 0.844 | 0.754 | 0.634
5 | PPSGEYFGQCG [TRIP6_Y275] | 1.58 | 1.39 | 0.953 | 1.23 | 1.06 | 0.824 | 1.37 | 0.552 | 0.764 | 1.52 | 0.573 | 1.58 | 0.771 | 1.19 | 0.829 | 0.791
6 | HNELYYEAAEH [VANGL1_Y345_E347A] | 1.56 | 1.12 | 1.06 | 5.49 | 4.38 | 7.27 | 1.44 | 1.52 | 2.1 | 1.16 | 5.06 | 0.854 | 1.79 | 0.954 | 0.606 | 0.777
7 | SSLEDYVRETN [GIMAP6_Y176_G171S] | 1.03 | 0.46 | 0.527 | 0.67 | 0.641 | 0.466 | 1.06 | 0.485 | 0.431 | 0.92 | 0.424 | 0.721 | 0.44 | 0.899 | 0.776 | 0.532
8 | ENAGFYFRVSA | 1.45 | 0.794 | 0.704 | 0.841 | 1.1 | 0.724 | 1.58 | 0.45 | 0.62 | 1.22 | 0.44 | 0.831 | 0.324 | 0.646 | 0.738 | 0.359
9 | DYYDLYGGEKK [PTPN11_Y66_F71K] | 2.84 | 6.24 | 4.52 | 15.8 | 14.1 | 0.888 | 1.17 | 4.04 | 4.06 | 2.36 | 2.72 | 0.945 | 3.65 | 1.01 | 0.665 | 0.838
10 | GESVSYLFSHV [PRPS1_Y311] | 0.872 | 0.511 | 0.473 | 0.397 | 0.588 | 0.417 | 0.996 | 0.421 | 0.473 | 0.847 | 0.421 | 0.701 | 0.431 | 0.734 | 2.31 | 0.566
11 | DFTEAYNSKIK [CLK1_Y305_P307S_YF] | 0.899 | 0.721 | 0.622 | 0.592 | 0.65 | 0.465 | 1.02 | 0.512 | 0.526 | 0.908 | 0.464 | 0.795 | 0.56 | 0.945 | 0.613 | 0.45
12 | RTLIRYAKLGN [BEST1_Y131_N133K] | 1.4 | 0.854 | 0.775 | 0.632 | 0.612 | 0.561 | 1.27 | 0.848 | 0.849 | 1.23 | 1.02 | 1.07 | 1.02 | 1.14 | 1.11 | 0.765
13 | FSCLPYRRLAF [SLC52A2_Y305_G306R_YF] | 0.992 | 0.428 | 0.589 | 0.478 | 0.568 | 0.411 | 0.826 | 0.559 | 0.432 | 0.806 | 0.531 | 0.63 | 0.902 | 0.677 | 0.852 | 0.47
14 | QSAGQYSSQGL [TNNI3K_Y788] | 0.703 | 0.95 | 0.414 | 0.387 | 0.542 | 0.622 | 1.15 | 0.459 | 0.855 | 0.636 | 0.584 | 0.777 | 0.418 | 0.944 | 0.924 | 0.369
15 | VEQIHYIGQNE [HMOX2_Y140_R137Q] | 0.665 | 0.445 | 0.396 | 0.483 | 0.612 | 0.424 | 0.663 | 0.462 | 0.461 | 0.547 | 0.408 | 0.423 | 0.452 | 0.834 | 0.582 | 0.465
16 | KRLFAYKMLMA [TMC2_Y209_Q205R_YF] | 0.767 | 0.484 | 0.528 | 0.458 | 0.683 | 0.59 | 0.867 | 0.433 | 0.455 | 0.669 | 0.375 | 0.58 | 0.367 | 2.05 | 1.98 | 1.51
17 | VGIMLYGVDSR [PKD1_Y3143] | 1.12 | 0.575 | 0.626 | 0.592 | 0.792 | 0.634 | 1.19 | 0.572 | 0.61 | 1.05 | 0.383 | 0.77 | 0.435 | 0.888 | 0.63 | 0.489

Row | Sequence | phosphorylation enrichment (AncSZ) | phosphorylation enrichment (EPHB1) | phosphorylation enrichment (EPHB2) | phosphorylation enrichment (FGFR1) | phosphorylation enrichment (FGFR3) | phosphorylation enrichment (Fer (mouse)) | phosphorylation enrichment (Fes) | phosphorylation enrichment (Fyn) | phosphorylation enrichment (Hck) | phosphorylation enrichment (Jak2) | phosphorylation enrichment (MERTK) | phosphorylation enrichment (c-Abl (mouse)) | phosphorylation enrichment (c-Src) | SH2 binding enrichment (Grb2 SH2) | SH2 binding enrichment (SHP2-C SH2) | SH2 binding enrichment (c-Src SH2)
18 | RLLVLYPWTQR [HBB_Y36_V35L] | 1.42 | 0.681 | 0.98 | 0.886 | 0.987 | 0.594 | 1.26 | 0.791 | 0.782 | 0.702 | 0.541 | 0.558 | 0.366 | 1.77 | 1.75 | 1.52
19 | DDEENYENVPR [FCRL3_Y722] | 1.3 | 0.619 | 0.572 | 0.567 | 0.773 | 0.57 | 1.19 | 0.555 | 0.589 | 1.11 | 0.45 | 0.786 | 0.428 | 1.04 | 0.9 | 0.699
20 | GRLPEYNTRIA [CCDC151_Y542] | 0.512 | 0.341 | 0.44 | 0.404 | 0.543 | 0.339 | 0.589 | 0.372 | 0.416 | 0.55 | 0.45 | 0.513 | 0.408 | 0.949 | 0.643 | 0.482
21 | YEREQYADRTR [RBM4_Y355_A359T] | 0.897 | 0.343 | 0.419 | 0.566 | 0.472 | 0.494 | 0.706 | 0.439 | 0.469 | 0.603 | 0.448 | 0.55 | 0.443 | 0.878 | 0.717 | 0.61
22 | TFHNTYHSQMR [IL1RAPL1_Y615] | 0.631 | 0.33 | 0.411 | 0.458 | 0.489 | 0.466 | 0.567 | 0.471 | 0.434 | 0.849 | 0.402 | 0.612 | 0.5 | 0.872 | 0.597 | 0.682
23 | NDKLRYEVSSP [CDH13_Y66] | 1.14 | 0.473 | 0.502 | 0.475 | 0.615 | 0.443 | 1.01 | 0.421 | 0.502 | 0.884 | 0.451 | 0.692 | 0.438 | 0.711 | 0.567 | 0.473
24 | QRRYVYYYSYL [PTEN_Y176] | 1.88 | 1.85 | 1.83 | 6.01 | 4.17 | 0.987 | 1.32 | 3.65 | 3.63 | 5.95 | 9.64 | 1.09 | 4.21 | 1.07 | 3.88 | 1
25 | WRPFGYPRCRR [BCS1L_Y181_R184C] | 0.599 | 0.444 | 0.478 | 0.505 | 0.459 | 0.447 | 0.509 | 0.498 | 0.454 | 0.485 | 0.505 | 0.403 | 0.528 | 0.714 | 0.39 | 0.459
26 | MFNPFYGLFEF [NEDD4L_Y680_YF] | 0.998 | 0.513 | 0.549 | 0.602 | 0.794 | 5.44 | 1.04 | 4.38 | 2.35 | 0.852 | 5.83 | 0.775 | 5.41 | 1.56 | 1.5 | 1.17
27 | REVPVYISEDS [SYNM_Y460_G462S] | 2.34 | 1.3 | 1.07 | 1.16 | 1.57 | 1.2 | 2.71 | 0.89 | 1.09 | 3.51 | 1.53 | 2.66 | 1.56 | 1.07 | 0.632 | 0.551
28 | LHVKMYNFLRS [ADGRG7_Y760_R756H] | 1.97 | 0.831 | 0.778 | 0.714 | 0.94 | 1.11 | 1.89 | 0.615 | 0.625 | 1.69 | 0.85 | 2.26 | 0.711 | 1.28 | 1.07 | 0.827
29 | APSGNYVACGG [GNB1_Y111] | 1.13 | 0.822 | 0.691 | 0.478 | 1.07 | 0.513 | 0.788 | 0.363 | 0.429 | 0.571 | 0.437 | 0.584 | 0.301 | 0.956 | 0.804 | 1.42
30 | TTPFNYSFIFK [RAB14_Y8_A4T_YF] | 1.2 | 2.1 | 0.734 | 0.725 | 0.793 | 0.74 | 1.28 | 0.705 | 0.695 | 0.941 | 1.93 | 0.86 | 0.593 | 1.1 | 1.82 | 1.86
31 | DVCKNYTEAKD [ALB_Y343_A344T] | 0.92 | 0.555 | 0.581 | 0.51 | 0.613 | 0.511 | 0.963 | 0.497 | 0.494 | 0.712 | 0.5 | 0.549 | 0.385 | 0.824 | 0.674 | 0.807
32 | NLSVPYDSSLK [ABCC8_Y1353_R1352P] | 0.601 | 0.451 | 0.509 | 0.445 | 0.503 | 0.418 | 0.68 | 0.41 | 0.445 | 0.588 | 0.426 | 0.516 | 0.508 | 0.765 | 0.735 | 0.489
33 | PTEAQYRFIYM [PTPN11_Y511_Q506P] | 2.44 | 1.08 | 0.777 | 3.16 | 2.82 | 1.54 | 2.2 | 1.04 | 1.35 | 2.37 | 1.18 | 1.98 | 1.75 | 0.528 | 0.673 | 0.335
